This passage reports binding result and Kd results from PMC3548785, “Identification of a Binding Site for ASF/SF2 on an RNA Fragment Derived from the Hepatitis delta Virus Genome”.

For series [1], the target named is T1, His-ASF/SF2 (UniProt Q07955 1-248). The experiment in a line: intrinsic tryptophan fluorescence quenching; no appKD could be calculated; 100 mM KCl, 20 mM Tris-HCl pH 7.5, room temperature, 100 nM His-ASF/SF2, excitation 280 nm, emission 340 nm. Conditions: protein: recombinant; tags: C-terminal His6; hairpin.
T1 sequence (Q07955 whole entry): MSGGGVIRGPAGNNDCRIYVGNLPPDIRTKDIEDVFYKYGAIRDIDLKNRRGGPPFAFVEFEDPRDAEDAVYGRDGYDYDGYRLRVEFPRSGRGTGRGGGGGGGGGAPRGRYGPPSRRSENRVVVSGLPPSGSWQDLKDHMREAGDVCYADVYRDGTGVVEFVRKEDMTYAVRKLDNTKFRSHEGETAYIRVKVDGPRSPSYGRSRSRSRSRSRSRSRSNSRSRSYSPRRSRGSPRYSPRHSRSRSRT
The target in series [2] is T1, His-ASF/SF2. Description: intrinsic tryptophan fluorescence quenching; apparent KD; 100 mM KCl, 20 mM Tris-HCl pH 7.5, room temperature, 100 nM His-ASF/SF2, excitation 280 nm, emission 340 nm. To be noted: protein: recombinant, tags: C-terminal His6.
Series [3] concerns the target T1, His-ASF/SF2. Description: intrinsic tryptophan fluorescence quenching; no appKD; loss of binding stated; 100 mM KCl, 20 mM Tris-HCl pH 7.5, room temperature, 100 nM His-ASF/SF2, excitation 280 nm, emission 340 nm. To be noted: protein: recombinant; tags: C-terminal His6; hairpin.

B1: R156G (structured_RNA)
RNA: CUCCCUCCGCGGUUCUUCCUCGACUCGGCCCGGCUCAUCUCGGCUAGAGGCGGCAGUCCUCAGUACUCUUACUCUUUUCUGUAAAGAGGAGACUGCUGGACUCGCCGCCCGAGGCCGAGCCUGAGCCAAGUGCCGAGCGAGGAGACGCGGGGGGAG
For the molecule B1, the binding result with His-ASF/SF2 [1] was “no binding”.

Consider AGUCCUCAGUACUCUUACUCUUUUCUGUAAAGAGGAGACUGCUGGACU (structured_RNA) [R47G], for which, in the series with His-ASF/SF2 [1], the binding result is given as “no binding”.

B2: R199G (structured_RNA)
RNA: GGGACUGCUCGAGGAUCUCUUCUCUCCCUCCGCGGUUCUUCCUCGACUCGGCCCGGCUCAUCUCGGCUAGAGGCGGCAGUCCUCAGUACUCUUACUCUUUUCUGUAAAGAGGAGACUGCUGGACUCGCCGCCCGAGGCCGAGCCUGAGCCAAGUGCCGAGCGAGGAGACGCGGGGGGAGGAUCAGCACCCGAGAGGGGAUGU
As for B2, the Kd with His-ASF/SF2 [2] (rod-like hairpin) was roughly 640 nM.

B3: R177G (structured_RNA)
RNA: GGAUCUCUUCUCUCCCUCCGCGGUUCUUCCUCGACUCGGCCCGGCUCAUCUCGGCUAGAGGCGGCAGUCCUCAGUACUCUUACUCUUUUCUGUAAAGAGGAGACUGCUGGACUCGCCGCCCGAGGCCGAGCCUGAGCCAAGUGCCGAGCGAGGAGACGCGGGGGGAGGAUCAGCACC
B3: the Kd with His-ASF/SF2 [2] (hairpin) was roughly 870 nM.

B4: R161G (structured_RNA)
RNA: UCUCUCCCUCCGCGGUUCUUCCUCGACUCGGCCCGGCUCAUCUCGGCUAGAGGCGGCAGUCCUCAGUACUCUUACUCUUUUCUGUAAAGAGGAGACUGCUGGACUCGCCGCCCGAGGCCGAGCCUGAGCCAAGUGCCGAGCGAGGAGACGCGGGGGGAGGA
As for B4, the Kd with His-ASF/SF2 [2] (hairpin) was roughly 900 nM.

B5: R177GΔASF (structured_RNA)
RNA: GGAUCUCUUCCGCGGUUCUUCCUCGACUCGGCCCGGCUCAUCUCGGCUAGAGGCGGCAGUCCUCAGUACUCUUACUCUUUUCUGUAAAGAGGAGACUGCUGGACUCGCCGCCCGAGGCCGAGCCUGAGCCAAGUGCCGAGCGAGGAGACGCGGGUCAGCACC
As to B5, the binding result with His-ASF/SF2 [3] is listed as “no binding”.
